Results as given in PMC6423008.
Values joined by “and” are separate entries in the source; they are usually repeats but may differ in a detail not shown here. Equal values may be shown once.

Key:
His98 [1] = target: His98 (UniProt position 99, NFPNYHQTSEI); assay: NMR; settings: 283 K (10 °C), 50 mM KCl plus 20 mM potassium phosphate, folded, 0.5 mM protein
His57 = His57 (UniProt position 58, HYSGGHTMTNK); assay: NMR; settings: 283 K (10 °C), 50 mM KCl plus 20 mM potassium phosphate, folded, 0.5 mM protein
His52 = His52 (UniProt position 53, FTWSQHYSGGH); assay: NMR; settings: 283 K (10 °C), 50 mM KCl plus 20 mM potassium phosphate, folded, 0.5 mM protein
His98 [2] = target: His98 (UniProt position 99, SEKFSHEQEVK); settings: apo chicken liver BABP; cited from earlier work
[3] = 0.05% NaN3, holo: doubly ligated I-BABP:GCDA:GCA = 1.0:1.5:1.5 complex

**Q.** With “Ileal bile acid-binding protein (I-BABP, gastrotropin, FABP6) (Homo sapiens)” as the substance, how does the pKa (His98 [1]; 0.05% NaN3, apo (ligand-free)) read?
**A.** 6.6 and 6.7 and 6.8

**Q.** And the pKa (His98 [1]; [3])?
**A.** 7.0 and 7.2

**Q.** And the pKa (His57; 0.05% NaN3, apo (ligand-free))?
**A.** 6.4

**Q.** What about the pKa (His57; [3]) of the same substance?
**A.** 7.9

**Q.** What about the pKa (His52; 0.05% NaN3, apo (ligand-free)) of the same substance?
**A.** 6.7

**Q.** What about the pKa (His52; [3]) of the same substance?
**A.** 6.6 and 6.5 and 6.8

**Q.** For “Liver bile acid-binding protein (cL-BABP, liver basic fatty acid-binding protein) (Gallus gallus)”, which pKa (His98 [2]) is on record?
**A.** 4.7
